Molecular target: CVB3 3D (Coxsackievirus B3, UniProt P03313 1724-2185)
Experiment: ITC

Chain of CVB3 3D (P03313 1724-2185): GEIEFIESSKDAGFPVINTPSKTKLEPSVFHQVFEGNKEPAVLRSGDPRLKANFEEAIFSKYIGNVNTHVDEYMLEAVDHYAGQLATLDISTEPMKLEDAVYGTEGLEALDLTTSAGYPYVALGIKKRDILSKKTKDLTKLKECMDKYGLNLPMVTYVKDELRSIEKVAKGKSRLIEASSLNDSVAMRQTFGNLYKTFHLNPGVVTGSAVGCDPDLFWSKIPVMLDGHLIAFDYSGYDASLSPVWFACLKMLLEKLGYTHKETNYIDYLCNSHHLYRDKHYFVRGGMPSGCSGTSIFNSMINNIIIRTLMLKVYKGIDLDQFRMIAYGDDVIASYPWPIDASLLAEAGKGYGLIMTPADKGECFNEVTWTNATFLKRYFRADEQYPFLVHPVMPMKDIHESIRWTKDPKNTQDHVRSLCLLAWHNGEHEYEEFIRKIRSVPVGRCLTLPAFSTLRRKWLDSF

B1: CVB3 CL WT (structured_RNA)
RNA: GGUAAAACAGCCUGUGGGUUGAUCCCACCCACAGGGCCCAUUGGGCGCUAGCACUCUGGUAUCACGGUACCUUUGUGCGCCUGUUUUACC
binding result: no binding

From publication PMC12540871
